Results from patent US20250320312A1 (OXITOPE PHARMA B V, published 2025).

T1: Peptide 4: Biotin-AGGGGSGGGGSGGGGSAAA-Tyr-acid (N-terminal biotin; C-terminal acid; no PC)
T1 construct: control peptide without PC
T1 peptide: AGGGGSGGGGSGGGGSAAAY

T2: Peptide 8: Biotin-AEAAAKEAAAKEAAAKEAAAKAAA-Tyr-acid (N-terminal biotin; C-terminal acid; no PC)
T2 construct: control peptide without PC
T2 peptide: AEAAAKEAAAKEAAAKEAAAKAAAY

B1: PcOxP_DB01_F08 (scFv, V domains shown)
VH: EVQLLESGGGLVQPGGSLRLSCAASGFTFSDGYMEWVRQAPGKGLEWVAASRNKWNDYTTEYADSVKGRFTISRDNSKNTLYLQMNSLRAEDTAVYYCARDYYGSSYWYFDVWGQGTLVTVSS
VL: DIVMTQSPDSLAVSLGERATINCTASESLYSSKHKVHYLAWYQQKPGQPPKLLIYGASNRYSGVPDRFSGSGSGTDFTLTISSLQAEDVAVYYCAQFYSYPLTFGGGTKVEIK
notes: scFv in periplasmic extract
B2: PcOxP_DB01_G05 (scFv, V domains shown)
VH: EVQLLESGGGLVQPGGSLRLSCAASGFTFSSYYMEWVRQAPGKGLEWVAASRNKANEYTTEYADSVKGRFTISRDNSKNTLYLQMNSLRAEDTAVYYCARDYYGSSYWYFDVWGQGTLVTVSS
VL: DIVMTQSPDSLAVSLGERATINCTASESLYSSKHKVHYLAWYQQKPGQPPKLLIYGASNRYIGVPDRFSGSGSGTDFTLTISSLQAEDVAVYYCANFYSYPLTFGGGTKVEIK
notes: scFv in periplasmic extract
B3: PcOxP_DB01_G03 (scFv, V domains shown)
VH: EVQLLESGGGLVQPGGSLRLSCAASGFTFSDGYMEWVRQAPGKGLEWVAASRNKANDYTTEYADSVKGRFTISRDNSKNTLYLQMNSLRAEDTAVYYCARDYYGSSYWYFDVWGQGTLVTVSS
VL: DIVMTQSPDSLAVSLGERATINCTASTSLYSSKHKVHYLAWYQQKPGQPPKLLIYGASNRYIGVPDRFSGSGSGTDFTLTISSLQAEDVAVYYCAQFYTYPLTFGGGTKVEIK
notes: scFv in periplasmic extract
B4: PcOxP_DB01_G07 (scFv, V domains shown)
VH: EVQLLESGGGLVQPGGSLRLSCAASGFTFSDYYMEWVRQAPGKGLEWVAASRNKYNDYTTEYADSVKGRFTISRDNSKNTLYLQMNSLRAEDTAVYYCARDYYGSSYWYFDVWGQGTLVTVSS
VL: DIVMTQSPDSLAVSLGERATINCTASESLYGSKHKVHYLAWYQQKPGQPPKLLIYGASNRYIGVPDRFSGSGSGTDFTLTISSLQAEDVAVYYCAQFYSYPLTFGGGTKVEIK
notes: scFv in periplasmic extract
B5: PcOxP_DB01_F12 (scFv, V domains shown)
VH: EVQLLESGGGLVQPGGSLRLSCAASGFTHSDFYMEWVRQAPGKGLEWVAASRNKANGYTTEYADSVKGRFTISRDNSKNTLYLQMNSLRAEDTAVYYCARDYYGSSYWYFDSWGQGTLVTVSS
VL: DIVMTQSPDSLAVSLGERATINCTASESLYSSKHKVHYLAWYQQKPGQPPKLLIYGASNRYVGVPDRFSGSGSGTDFTLTISSLQAEDVAVYYCAQFYSYPLTFGGGTKVEIK
notes: scFv in periplasmic extract
B6: PcOxP_DB01_G10 (scFv, V domains shown)
VH: EVQLLESGGGLVQPGGSLRLSCAASGFTFSDFYMEWVRQAPGKGLEWVAASRNKNNDYTTEYADSVKGRFTISRDNSKNTLYLQMNSLRAEDTAVYYCARDYYGSSYWYFDVWGQGTLVTVSS
VL: DIVMTQSPDSLAVSLGERATINCKASQSLYSSKHKKHYLAWYQQKPGQPPKLLIYGASNRYPGVPDRFSGSGSGTDFTLTISSLQAEDVAVYYCAQFYRYPLTFGGGTKVEIK
notes: scFv in periplasmic extract
B7: PcOxP_DB01_H02 (scFv, V domains shown)
VH: EVQLLESGGGLVQPGGSLRLSCAASGFTFSSYYMEWVRQAPGKGLEWVAASRNKANDYTTEYADSVKGRFTISRDNSKNTLYLQMNSLRAEDTAVYYCARDYYGSSYWYFDVWGQGTLVTVSS
VL: DIVMTQSPDSLAVSLGERATINCTASSSLYSSKHKVHYLAWYQQKPGQPPKLLIYGASNRYIGVPDRFSGSGSGTDFTLTISSLQAEDVAVYYCAQFYSYPLTFGGGTKVEIK
notes: scFv in periplasmic extract
B8: PcOxP_DB01_G02 (scFv, V domains shown)
VH: EVQLLESGGGLVQPGGSLRLSCAASGFLFSDFYMEWVRQAPGKGLEWVAASRNKANDYTTTYADSVKGRFTISRDNSKNTLYLQMNSLRAEDTAVYYCARDYYGSHYWYFDVWGQGTLVTVSS
VL: DIVMTQSPDSLAVSLGERATINCTASESLYSSKHKVHYLAWYQQKPGQPPKLLIYGASNREIGVPDRFSGSGSGTDFTLTISSLQAEDVAVYYCAQFYFYPLTFGGGTKVEIK
notes: scFv in periplasmic extract
B9: PcOxP_DB01_G04 (scFv, V domains shown)
VH: EVQLLESGGGLVQPGGSLRLSCAASGFTFSDGYMEWVRQAPGKGLEWVAASRNKANDYTTEYADSVKGRFTISRDNSKNTLYLQMNSLRAEDTAVYYCARDYYGSSYWYFDVWGQGTLVTVSS
VL: DIVMTQSPDSLAVSLGERATINCTASESLYSSKHKVHYLAWYQQKPGQPPKLLIYGASNRYSGVPDRFSGSGSGTDFTLTISSLQAEDVAVYYCAQFYSYPLTFGGGTKVEIK
notes: scFv in periplasmic extract
B10: PcOxP_DB01_H03 (scFv, V domains shown)
VH: EVQLLESGGGLVQPGGSLRLSCAASGFTFSDHYMEWVRQAPGKGLEWVAASRGKGNSYTTAYADSVKGRFTISRDNSKNTLYLQMNSLRAEDTAVYYCARDYYGSSYWYFDVWGQGTLVTVSS
VL: DIVMTQSPDSLAVSLGERATINCTASESLYSSKHKVHYLAWYQQKPGQPPKLLIYGAGNRYIGVPDRFSGSGSGTDFTLTISSLQAEDVAVYYCAQFYHYPLTFGGGTKVEIK
notes: scFv in periplasmic extract
B11: PcOxP_DB01_F11 (scFv, V domains shown)
VH: EVQLLESGGGLVQPGGSLRLSCAASGFTFSSYYMEWVRQAPGKGLEWVAASRNKANDYTTEYADSVKGRFTISRDNSKNTLYLQMNSLRAEDTAVYYCARDYYGSSYWYYDVWGQGTLVTVSS
VL: DIVMTQSPDSLAVSLGERATINCTASESLYSSKHKVHYLAWYQQKPGQPPKLLIYGASNRYIGVPDRFSGSGSGTDFTLTISSLQAEDVAVYYCAQFYSYPLTFGGGTKVEIK
notes: scFv in periplasmic extract
B12: PcOxP_DB01_H01 (scFv, V domains shown)
VH: EVQLLESGGGLVQPGGSLRLSCAASGFTFSSYYMEWVRQAPGKGLEWVAASRNKANLYTTEYADSVKGRFTISRDNSKNTLYLQMNSLRAEDTAVYYCARDYYGSSTWYFDVWGQGTLVTVSS
VL: DIVMTQSPDSLAVSLGERATINCTASESLYSSKHKVHYLAWYQQKPGQPPKLLIYGASNRYIGVPDRFSGSGSGTDFTLTISSLQAEDVAVYYCAQFYSYPLTFGGGTKVEIK
notes: scFv in periplasmic extract
B13: PcOxP_DB01_G06 (scFv, V domains shown)
VH: EVQLLESGGGLVQPGGSLRLSCAASGFTFSDYYMEWVRQAPGKGLEWVAASRNKWNDYTTEYADSVKGRFTISRDNSKNTLYLQMNSLRAEDTAVYYCARDYYGSSYWYFDVWGQGTLVTVSS
VL: DIVMTQSPDSLAVSLGERATINCTASESLYSSKHKVHYLAWYQQKPGQPPKLLIYGASNRYSGVPDRFSGSGSGTDFTLTISSLQAEDVAVYYCAQFYSYPLTFGGGTKVEIK
notes: scFv in periplasmic extract

Assays:
Assay in all cases: scFv ELISA
[1] = target: BSA (UniProt P02769)
[2] = target: Peptide 1: Biotin-…-[Tyr(PC)]-acid
[3] = target: Peptide 5: Biotin-…-[Tyr(PC)]-acid
[4] = target: T1, Peptide 4: …
In short: (§1)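 Bound scFv was read as OD450 after HRP–anti-V5 detection, TMB development and HCl stop. PPE with BSA was incubated 1 h at RT on BSA-blocked wells coated overnight at 4° C. with peptide, or on streptavidin wells loaded 1 h with biotinylated PC-peptides at 1 μg/mL.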

[5] = target: T2, Peptide 8: …
In short: as §1

Chain of BSA (P02769 25-607 limits assumed): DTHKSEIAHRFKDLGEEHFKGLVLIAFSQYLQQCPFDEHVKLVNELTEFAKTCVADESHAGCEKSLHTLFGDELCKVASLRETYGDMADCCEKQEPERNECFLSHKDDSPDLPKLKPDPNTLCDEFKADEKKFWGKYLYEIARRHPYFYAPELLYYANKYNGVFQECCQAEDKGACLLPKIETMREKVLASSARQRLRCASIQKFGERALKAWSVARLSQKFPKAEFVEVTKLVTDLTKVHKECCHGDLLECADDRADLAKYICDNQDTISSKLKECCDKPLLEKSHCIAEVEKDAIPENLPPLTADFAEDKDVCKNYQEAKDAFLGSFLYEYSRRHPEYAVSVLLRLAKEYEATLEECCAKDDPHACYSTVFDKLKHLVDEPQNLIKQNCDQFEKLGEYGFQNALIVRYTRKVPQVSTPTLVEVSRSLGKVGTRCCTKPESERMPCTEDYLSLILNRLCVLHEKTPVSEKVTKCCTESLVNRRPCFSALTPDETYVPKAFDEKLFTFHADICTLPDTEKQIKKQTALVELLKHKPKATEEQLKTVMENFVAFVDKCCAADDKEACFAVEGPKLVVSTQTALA

Binder	OD450 [1] [OD450]	OD450 [2] [OD450]	OD450 [3] [OD450]	OD450 [4] [OD450]	OD450 [5] [OD450]
B1	0.06	0.52	1.22	0.04	0.04
B2	0.08	0.69	1.24	0.05	0.05
B3	0.07	0.43	0.94	0.05	0.05
B4	0.07	0.46	1.2	0.05	0.04
B5	0.06	0.76	1.43	0.05	0.05
B6	0.1	0.71	1.52	0.05	0.05
B7	0.1	0.74	1.1	0.07	0.06
B8	0.06	0.82	1.2	0.05	0.04
B9	0.07	0.56	1.01	0.05	0.07
B10	0.1	0.46	1.29	0.07	0.06
B11	0.07	1.55	1.92	0.07	0.05
B12	0.09	0.82	1.23	0.07	0.06
B13	0.06	0.73	1.32	0.05	0.04
